Source: patent US4286063A, “Method for producing thrombolytic preparation” (The Green Cross Corporation, priority 1978, dated 1981)

Experiments:
urokinase [1] = assay: Effect of heat stabilizers on residual urokinase activity after heat treatment; assay type: physicochemical; conditions: for residual urokinase activity in the presence of heat stabilizer: after heat treatment, concentrations of Table 2
urokinase [2] = assay: Residual urokinase activity and molecular weight distribution after dialysis against outer liquids of different pH; assay type: physicochemical, human urine; conditions: 40 hours at 4° C.
Procedure: The interrelationship between pH and the ratio of residual urokinase activity as well as the molecular weight distribution:
The resulting solution was dialyzed for 40 hours at 4° C. against an outer liquid of water, a 1 M sodium acetate buffer solution of pH 3.0, 4.0, 5.0, 6.0, 7.0, 8.0, 9.0, 11.0 or 12.0 or a 1/15 M phosphate buffer solution, while renewing the outer liquid at a time interval of 8 hours. After completion of the dialysis, the ratio of residual activity was assayed and molecular weight distribution was roughly evaluated by the molecular sieving by means of gel filtration technique.

urokinase [3] = assay: Stability of urokinase in heat treatment (60° C., 10 hours), dependence on pH; assay type: physicochemical
Procedure: Dependence of the stability of urokinase in heat treatment on pH:
A phosphate buffer solution was added in various concentrations to an aqueous urokinase solution [specific activity, 15,000 IU/mg; protein concentration, 0.02% (W/V)] to prepare samples of urokinase solutions having pH of 4, 5, 6, 7, 8, 9 and 10. Each sample was heated at 60° C. for 10 hours and the residual activity was compared. After the heat treatment, the heat stabilizer was removed by dialysis and the urokinase activity was assayed to calculate the ratio of residual activity by taking the specific activity before heating as 100%.

[4] = heat stabilizer concentration 0.1 M
[5] = heat stabilizer concentration 5%
[6] = heat stabilizer concentration 10%
[7] = heat stabilizer concentration 15%

For N=C(N)NCCC[C@H](N)C(=O)O [Arginine, arginine], the “residual urokinase activity in the presence of heat stabilizer” value (urokinase [1]) was 79% and the “Ratio of residual urokinase activity” value (urokinase [1]; [4]) was 79%.

In the case of O=C(O)CN(CCN(CC(=O)O)CC(=O)O)CC(=O)O [EDTA], the “Ratio of residual urokinase activity” value (urokinase [1]; heat stabilizer concentration 0.1%) is reported as 23%.

NCC(=O)O [Glycine, glycine] was tested, and the “residual urokinase activity in the presence of heat stabilizer” value (urokinase [1]) was 65-75%, the “Ratio of residual urokinase activity” value (urokinase [1]; [5]) was 65% and the “Ratio of residual urokinase activity” value (urokinase [1]; [6]) was 70%. For the same molecule, the “Ratio of residual urokinase activity” value (urokinase [1]; [7]) was 75%.

In the case of NCCCC[C@H](N)C(=O)O [Lysine, lysine], the “residual urokinase activity in the presence of heat stabilizer” value (urokinase [1]) is reported as 78% and the “Ratio of residual urokinase activity” value (urokinase [1]; [4]) is reported as 78%.

OC[C@@H](O)[C@@H](O)[C@H](O)[C@H](O)CO [Mannit, mannitol] was tested, and the “residual urokinase activity in the presence of heat stabilizer” value (urokinase [1]) was 78%, the “Ratio of residual urokinase activity” value (urokinase [1]; [5]) was 73% and the “Ratio of residual urokinase activity” value (urokinase [1]; [6]) was 73%.

For [Cl-].[Na+] [Sodium chloride, sodium chloride], the “residual urokinase activity in the presence of heat stabilizer” value (urokinase [1]) was 71-75%, the “Ratio of residual urokinase activity” value (urokinase [1]; heat stabilizer concentration 0.15 M) was 71% and the “Ratio of residual urokinase activity” value (urokinase [1]; heat stabilizer concentration 0.3 M) was 75%.

In the case of OC[C@H]1O[C@@](CO)(O[C@H]2O[C@H](CO)[C@@H](O)[C@H](O)[C@H]2O)[C@@H](O)[C@@H]1O [Sucrose, sucrose], the “residual urokinase activity in the presence of heat stabilizer” value (urokinase [1]) is reported as 75-78%, the “Ratio of residual urokinase activity” value (urokinase [1]; [5]) is reported as 75% and the “Ratio of residual urokinase activity” value (urokinase [1]; [6]) is reported as 77%. For the same molecule, the “Ratio of residual urokinase activity” value (urokinase [1]; [7]) was 78%.

With Gelatin the “residual urokinase activity in the presence of heat stabilizer” value (urokinase [1]) was 88-100%, the “Ratio of residual urokinase activity” value (urokinase [1]; heat stabilizer concentration 0.5%) was 88% and the “Ratio of residual urokinase activity” value (urokinase [1]; heat stabilizer concentration 1.0%) was 91%. The “Ratio of residual urokinase activity” value (urokinase [1]; heat stabilizer concentration 3.0%) was 89%.

With urokinase the Activity after dialysis (urokinase [2]; Run 1, pH of outer liquid 3) was 6,324 IU, the “Ratio of residual activity” value (urokinase [2]; Run 1, pH of outer liquid 3) was 65 and the Activity after dialysis (urokinase [2]; Run 2, pH of outer liquid 4) was 6,314 IU. The “Ratio of residual activity” value (urokinase [2]; Run 2, pH of outer liquid 4) was 64, the Activity after dialysis (urokinase [2]; Run 3, pH of outer liquid 5) was 6,426 IU and the “Ratio of residual activity” value (urokinase [2]; Run 3, pH of outer liquid 5) was 66. The Activity after dialysis (urokinase [2]; Run 4, pH of outer liquid 6) was 7,252 IU, the “Ratio of residual activity” value (urokinase [2]; Run 4, pH of outer liquid 6) was 74 and the Activity after dialysis (urokinase [2]; Run 5, pH of outer liquid 7) was 8,296 IU. For the same molecule, the “Ratio of residual activity” value (urokinase [2]; Run 5, pH of outer liquid 7) was 85, the Activity after dialysis (urokinase [2]; Run 6, pH of outer liquid 8) was 10,290 IU and the “Ratio of residual activity” value (urokinase [2]; Run 6, pH of outer liquid 8) was 105. The Activity after dialysis (urokinase [2]; Run 7, pH of outer liquid 9) was 9,672 IU, the “Ratio of residual activity” value (urokinase [2]; Run 7, pH of outer liquid 9) was 99 and the Activity after dialysis (urokinase [2]; Run 8, pH of outer liquid 11) was 9,016 IU. For the same molecule, the “Ratio of residual activity” value (urokinase [2]; Run 8, pH of outer liquid 11) was 92, the Activity after dialysis (urokinase [2]; Run 9, pH of outer liquid 12) was 8,722 IU and the “Ratio of residual activity” value (urokinase [2]; Run 9, pH of outer liquid 12) was 89. The Activity after dialysis (urokinase [2]; outer liquid H2O) was 8,514 IU, the “Ratio of residual activity” value (urokinase [2]; outer liquid H2O) was 86 and the “ratio of residual activity after heat treatment” value (urokinase [3]; pH 7, phosphate buffer) was 52%. The “ratio of residual activity after heat treatment” value (urokinase [3]; pH 8, phosphate buffer) was 65%, the “ratio of residual activity after heat treatment” value (urokinase [3]; pH 9, phosphate buffer) was 50% and the “Ratio of residual urokinase activity” value (urokinase [1]; heat stabilizer absent, pH 6.8 with 0.1 M phosphate buffer) was 65%. For the same molecule, the “Ratio of residual urokinase activity” value (urokinase [1]; no phosphate buffer, pH not adjusted) was 0%.
